Here are results for 13 molecules from patent publication US20200200749A1 (published 2020).

Read-outs that look alike come from different tables or passages of the source.

Experiment in all cases: ELISA
Experiment [1] addresses MARV GP.
Experiment [2] deals with T1, BDBV GP (BDBV (Bundibugyo ebolavirus)).
The next experiment addresses T2, SUDV GP (recombinant) (SUDV (Sudan ebolavirus), UniProt Q66814 33-650).
T2 chain: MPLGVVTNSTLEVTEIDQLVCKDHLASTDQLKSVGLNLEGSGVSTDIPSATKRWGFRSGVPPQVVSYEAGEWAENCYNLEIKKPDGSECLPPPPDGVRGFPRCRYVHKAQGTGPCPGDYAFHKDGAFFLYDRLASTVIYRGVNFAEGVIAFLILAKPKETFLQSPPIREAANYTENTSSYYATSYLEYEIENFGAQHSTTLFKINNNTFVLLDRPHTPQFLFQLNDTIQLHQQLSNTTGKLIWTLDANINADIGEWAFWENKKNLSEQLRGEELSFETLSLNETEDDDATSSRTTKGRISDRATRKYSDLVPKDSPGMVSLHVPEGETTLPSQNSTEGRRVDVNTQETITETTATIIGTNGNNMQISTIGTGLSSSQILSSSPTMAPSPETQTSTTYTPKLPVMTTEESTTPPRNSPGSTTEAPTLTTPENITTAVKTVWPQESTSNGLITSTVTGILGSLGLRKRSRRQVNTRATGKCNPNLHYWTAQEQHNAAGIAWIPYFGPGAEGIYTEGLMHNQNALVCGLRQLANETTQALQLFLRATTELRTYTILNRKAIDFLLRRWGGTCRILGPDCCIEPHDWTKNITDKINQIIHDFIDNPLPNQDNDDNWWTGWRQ

Another experiment addresses T3, EBOV sGP (EBOV (Ebola Zaire), UniProt P60170 33-324).
T3 chain: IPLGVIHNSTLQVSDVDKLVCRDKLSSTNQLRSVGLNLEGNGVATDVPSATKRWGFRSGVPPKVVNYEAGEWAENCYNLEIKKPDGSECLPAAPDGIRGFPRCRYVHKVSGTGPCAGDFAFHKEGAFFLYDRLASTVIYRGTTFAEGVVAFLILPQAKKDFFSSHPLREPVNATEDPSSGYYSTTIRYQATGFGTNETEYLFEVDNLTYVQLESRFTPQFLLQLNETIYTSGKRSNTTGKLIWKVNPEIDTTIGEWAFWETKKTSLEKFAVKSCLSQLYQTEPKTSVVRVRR

Experiment [3] deals with T4, EBOV GP (recombinant, full-length extracellular domain) (EBOV (Ebola Zaire), UniProt Q05320 33-650).
T4 chain: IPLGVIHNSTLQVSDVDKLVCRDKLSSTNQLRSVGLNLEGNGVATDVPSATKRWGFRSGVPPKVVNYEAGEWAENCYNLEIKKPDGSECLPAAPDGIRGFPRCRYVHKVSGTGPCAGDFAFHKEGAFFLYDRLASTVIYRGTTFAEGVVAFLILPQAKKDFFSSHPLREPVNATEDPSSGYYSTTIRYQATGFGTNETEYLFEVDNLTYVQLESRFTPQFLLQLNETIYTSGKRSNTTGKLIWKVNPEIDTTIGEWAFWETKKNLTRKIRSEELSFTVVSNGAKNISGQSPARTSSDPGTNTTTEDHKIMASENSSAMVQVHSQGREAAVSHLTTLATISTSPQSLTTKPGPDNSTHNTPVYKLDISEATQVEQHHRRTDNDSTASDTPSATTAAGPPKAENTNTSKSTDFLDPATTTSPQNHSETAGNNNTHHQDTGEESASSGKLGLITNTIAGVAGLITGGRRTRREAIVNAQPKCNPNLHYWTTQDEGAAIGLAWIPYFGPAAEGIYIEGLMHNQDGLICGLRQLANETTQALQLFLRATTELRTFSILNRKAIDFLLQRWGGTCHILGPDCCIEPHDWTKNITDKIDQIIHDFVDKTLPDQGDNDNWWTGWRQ

Experiment [4] addresses MARV GP. This is another data set of the same source.
The target in experiment [5] is T1, BDBV GP. This is another data set of the same source.
The next experiment deals with BDBV sGP (BDBV (Bundibugyo ebolavirus)).

B1: 49 (antibody, V domains shown)
VH: EVQLVESGGGLVQPGGSLRLSCAASGFTFSSYEINWVRQAPGRGLEWVSYISSSGRTIYYADSVKGRFTISRDNAKNSLYLQMNSLRAEDTAVYYCAREPYVDGILYGAGDSYFDYWGQGTLVTVSS
VL: DIQMTQSPSSLSASVGDRVTITCRASQSISNYLNWYQQKPGKAPKVLIYAASSLQSGVSSRFSGSGSGTDFTLTISSLQPEDFATYFCQQSYNTPPVTFGQGTRLEIK
As for B1, the EC50 in the experiment with MARV GP [1] and in the experiment with BDBV GP [2] was above 10 µg/mL throughout.

B2: EBOV49 (antibody, V domains shown)
VH: EVQLVESGGGLVQPGGSLRLSCAASGFTFSSYEINWVRQAPGRGLEWVSYISSSGRTIYYADSVKGRFTISRDNAKNSLYLQMNSLRAEDTAVYYCAREPYVDGILYGAGDSYFDYWGQGTLVTVSS
VL: DIQMTQSPSSLSASVGDRVTITCRASQSISNYLNWYQQKPGKAPKVLIYAASSLQSGVSSRFSGSGSGTDFTLTISSLQPEDFATYFCQQSYNTPPVTFGQGTRLEIK
In the case of B2, the EC50 with SUDV GP (recombinant) was above 10 µg/mL; in the experiment with EBOV sGP it was 0.061 µg/mL; in experiment [3], 0.262 µg/mL.

B3: 324 (antibody, V domains shown)
VH: QVQLVQSGAEVKKPGASVKVSCKTSGYTFTSFEIHWVRQGSGQGLEWMGRMNPKSGDTVSAQKFQGRVTLTRDTSINAAYMELGSLSSEDTAVYYCARGPHVGEVVPGLMAGTYYFPLDVWGQGTLVTVSS
VL: DIQMTQSPSTLSASIGDRVTITCRASQSISRWLAWYQQKPGKAPKLLIYKVSDLQSGVPSRFSGSGYGTEFTLTIGSLQPDDLATYYCQQYDTYPWTFGQGTKLEIK
Turning to B3, the EC50 in the experiment with MARV GP [4] is above 10 µg/mL; with BDBV GP [5] it was 0.053 µg/mL; with BDBV sGP, 0.012 µg/mL.

B4: 289 (antibody, V domains shown)
VH: QVQLVQSGAEVKKPGSSVKVSCKASGATFGSDTVTWVRQAPGQGLEWMGGIIPFFGEANYAQRFQGRVTITADKSTNTAYMELSSLRSEDTAVYFCARQINEMATFGEIHYYTYMDVWGQGTLVTVSS
VL: GSELTQDPAVSVALGQTVRITCQGDSLRNYYASWYQQKPRQAPVLVFYGKNNRPSGIPDRFSGSSSGNTASLTISGAQAEDEADYYCNSRDSSSNHLVFGGGTKLTVLS
Turning to B4, the EC50 was above 10 µg/mL in the experiment with MARV GP [4], 0.02 µg/mL with BDBV GP [5] and 0.006 µg/mL in the experiment with BDBV sGP.

B5: EBOV62 (antibody, V domains shown)
VH: EVQLVESGGGLVQPGGSLRLSCAASGFTFSSYWMSWVRQAPGKGLEWVANIKQDGSAKYYVDSVKGRFTISRDNAKNSLYLQMNSLRAEDTAVYYCARDGLLGISDLLYPIYYFDYWGQGTLVTVSS
VL: DIVMTQSPSSLSASVGDRVTITCRASQNIGSYLNWYQQKPGKAPNLLMYAASSLQSGVPSRFSGSGSGTDFTLTITSLQPEDFATYYCQQSYSIPRTFGQGTQLEIK
Take B5: the EC50 was above 10 µg/mL with SUDV GP (recombinant), 0.051 µg/mL with EBOV sGP and 0.228 µg/mL in experiment [3].

B6: 62 (antibody, V domains shown)
VH: EVQLVESGGGLVQPGGSLRLSCAASGFTFSSYWMSWVRQAPGKGLEWVANIKQDGSAKYYVDSVKGRFTISRDNAKNSLYLQMNSLRAEDTAVYYCARDGLLGISDLLYPIYYFDYWGQGTLVTVSS
VL: DIVMTQSPSSLSASVGDRVTITCRASQNIGSYLNWYQQKPGKAPNLLMYAASSLQSGVPSRFSGSGSGTDFTLTITSLQPEDFATYYCQQSYSIPRTFGQGTQLEIK
In the case of B6, the values for the EC50 with MARV GP [1] and in the experiment with BDBV GP [2] were above 10 µg/mL and 0.508 µg/mL, respectively.

B7: 87 (antibody, V domains shown)
VH: QVQLVQSGAEVKRPGASVKVSCKASGYTFTSYAISWVRQAPGQGLEWMGWISGNNGNTNYAQKLQGRLTMTTDTSTSTAYMELRSLRSDDTAVYYCARDADIVVVVGATGTYYYGMDVWGQGTLVTVSS
VL: DIVMTQSPSTLSASVGDRVTITCRASQSISSWLAWYQQKPGKAPKLLIYDASSLESGVPSRFSGSGSGTEFTLTISSLQPDDFATYYCQQYKSSLRTFGQGTQLEIK
In the case of B7, the values for the EC50 with MARV GP [1] and with BDBV GP [2] were above 10 µg/mL and 1.39 µg/mL, respectively.

B8: EBOV87 (antibody, V domains shown)
VH: QVQLVQSGAEVKRPGASVKVSCKASGYTFTSYAISWVRQAPGQGLEWMGWISGNNGNTNYAQKLQGRLTMTTDTSTSTAYMELRSLRSDDTAVYYCARDADIVVVVGATGTYYYGMDVWGQGTLVTVSS
VL: DIVMTQSPSTLSASVGDRVTITCRASQSISSWLAWYQQKPGKAPKLLIYDASSLESGVPSRFSGSGSGTEFTLTISSLQPDDFATYYCQQYKSSLRTFGQGTQLEIK
For the molecule B8, the EC50 with SUDV GP (recombinant) came to 0.629 µg/mL; with EBOV sGP, 0.051 µg/mL; in experiment [3] it was 0.724 µg/mL.

B9: EBOV63 (antibody, V domains shown)
VH: EVQLVESGGGLVKPGGSLRLSCAASGFTLNFYNMNWVRQAPGKGLEWVSSISSSSNYIYYADSVKGRFTISRDNARKSLYLQMNSLRAEDTAVYYCARDFVQLLIPQRDEWQGVHDYYGMDVWGQGTLVTVSS
VL: EIVLTQSPGTLSLSPGGRATLSCRASQSVSNSYLAWYQQKPGQAPRLLIYGASSRATGIPDRFSGSGSGTDFILTISRLEPEDFAVYYCQHYGSSQLTFGGGTKVEIK
For B9, the EC50 with SUDV GP (recombinant) was above 10 µg/mL; with EBOV sGP, 0.038 µg/mL; in experiment [3] it was 0.283 µg/mL.

B10: 63 (antibody, V domains shown)
VH: EVQLVESGGGLVKPGGSLRLSCAASGFTLNFYNMNWVRQAPGKGLEWVSSISSSSNYIYYADSVKGRFTISRDNARKSLYLQMNSLRAEDTAVYYCARDFVQLLIPQRDEWQGVHDYYGMDVWGQGTLVTVSS
VL: EIVLTQSPGTLSLSPGGRATLSCRASQSVSNSYLAWYQQKPGQAPRLLIYGASSRATGIPDRFSGSGSGTDFILTISRLEPEDFAVYYCQHYGSSQLTFGGGTKVEIK
For the molecule B10, the EC50 with MARV GP [1] and with BDBV GP [2] was above 10 µg/mL each time.

B11: 270 (antibody, V domains shown)
VH: QVQLQESGPGLVKPSQTLSLTCTVSGASISRGLYYWSWIRQPAGKGLEWIGRIYTSGSINYNPSLKSRVTISVDTSKNQFSLRLSSVIATDTAVYYCVRDAPWGDFLTGYFGFYGMDVWGQGTLVTVSS
VL: DIVMTQSPSSLSASVGDRVTITCRASQSINTYLNWYQQKPGKAPKFLIYAASSLHSGVPSRFSGSGSGTDFTLTINSLQPDDFATYYCQQSFTTPYTFGQGTKLEIK
Take B11: the figures for the EC50 with MARV GP [4], with BDBV GP [5] and with BDBV sGP were above 10 µg/mL, 0.154 µg/mL and 0.025 µg/mL, respectively.

B12: 52 (antibody, V domains shown)
VH: QVQLQESGPGLVKPSETLSLNCTVSGGSISSYYWSWIRQPPGKGLEWIGYIYDSGRTKYNPSLKSRVTISLDTSKNQFSLKLSSVTAADTAVYYCASLGPFDKLWFGELLPGWFDPWGQGTLVTVSS
VL: EIVLTQSPATLSLSPGGRATLSCRASQSVHNYLAWYQQKSGQAPRLLIYDASNRATGIPARFSGSGSGTDFTLTISSLEPDDFAVYYCQHRSNWLTFGGGTKVEIK
Turning to B12, the EC50 with MARV GP [1] was above 10 µg/mL; in the experiment with BDBV GP [2], 1.84 µg/mL.

B13: EBOV52 (antibody, V domains shown)
VH: QVQLQESGPGLVKPSETLSLNCTVSGGSISSYYWSWIRQPPGKGLEWIGYIYDSGRTKYNPSLKSRVTISLDTSKNQFSLKLSSVTAADTAVYYCASLGPFDKLWFGELLPGWFDPWGQGTLVTVSS
VL: EIVLTQSPATLSLSPGGRATLSCRASQSVHNYLAWYQQKSGQAPRLLIYDASNRATGIPARFSGSGSGTDFTLTISSLEPDDFAVYYCQHRSNWLTFGGGTKVEIK
B13: the EC50 with SUDV GP (recombinant) was above 10 µg/mL; with EBOV sGP, 0.082 µg/mL; in experiment [3], 0.712 µg/mL.
